Legend:
[1] = system: oxidized HMGB1 (Cys23-Cys45 disulfide) (rat (sequence identical to human)); test: ligase-mediated circularization; details: bending, EMSA: 50 mM NaCl, 25 mM Tris-HCl pH 7.5, 1 mM EDTA, 1 mM DTT, 100 ug/ml acetylated BSA, 3% glycerol, 30 min on ice, gels 0.5x TBE, 4 C
[2] = system: histone H1o (H1) (human); test: EMSA; details: no competitor DNA, EMSA: 50 mM NaCl, 25 mM Tris-HCl pH 7.5, 1 mM EDTA, 1 mM DTT, 100 ug/ml acetylated BSA, 3% glycerol, 30 min on ice
[3] = system: oxidized HMGB1 (Cys23-Cys45 disulfide) (rat (sequence identical to human)); test: EMSA; details: EMSA: 50 mM NaCl, 25 mM Tris-HCl pH 7.5, 1 mM EDTA, 1 mM DTT, 100 ug/ml acetylated BSA, 3% glycerol, 30 min on ice
[4] = system: reduced HMGB1 (all-thiol) (rat (sequence identical to human)); test: EMSA; details: EMSA: 50 mM NaCl, 25 mM Tris-HCl pH 7.5, 1 mM EDTA, 1 mM DTT, 100 ug/ml acetylated BSA, 3% glycerol, 30 min on ice
[5] = covalently closed circle, gels 0.5x TBE …

Substance: 123-bp DNA duplex
- binding signal (% of minicircles with reduced HMGB1) [1]: < 20

Substance: hemicatenated DNA loops (hcDNA)
- Kd ([2]; gels 0.5x TBE, 4 C): 6 nM
- Kd ([3]; gels 0.5x TBE, 4 C): < 0.01 nM
- binding signal (fold lower affinity than reduced (up to)) ([3]; oxidized, gels 0.5x TBE, 4 C): 10
- Kd ([4]; gels 0.5x TBE, 4 C): < 0.01 nM

Substance: 66-bp DNA minicircle
- Kd [2, 5]: 5 nM
- Kd ([3]; oxidized, covalently closed circle, gels 0.5x TBE …): 0.25 nM
- Kd [4, 5]: < 0.1 nM

Source: article PMC3923860
